Measurements published in paper PMC10786891, “Massively parallel profiling of RNA-targeting CRISPR-Cas13d”.

T1: EsCas13d, nuclease-dead (Eubacterium siraeum, UniProt B0MS50, R295A;H300A;R849A;H854A)
T1 sequence: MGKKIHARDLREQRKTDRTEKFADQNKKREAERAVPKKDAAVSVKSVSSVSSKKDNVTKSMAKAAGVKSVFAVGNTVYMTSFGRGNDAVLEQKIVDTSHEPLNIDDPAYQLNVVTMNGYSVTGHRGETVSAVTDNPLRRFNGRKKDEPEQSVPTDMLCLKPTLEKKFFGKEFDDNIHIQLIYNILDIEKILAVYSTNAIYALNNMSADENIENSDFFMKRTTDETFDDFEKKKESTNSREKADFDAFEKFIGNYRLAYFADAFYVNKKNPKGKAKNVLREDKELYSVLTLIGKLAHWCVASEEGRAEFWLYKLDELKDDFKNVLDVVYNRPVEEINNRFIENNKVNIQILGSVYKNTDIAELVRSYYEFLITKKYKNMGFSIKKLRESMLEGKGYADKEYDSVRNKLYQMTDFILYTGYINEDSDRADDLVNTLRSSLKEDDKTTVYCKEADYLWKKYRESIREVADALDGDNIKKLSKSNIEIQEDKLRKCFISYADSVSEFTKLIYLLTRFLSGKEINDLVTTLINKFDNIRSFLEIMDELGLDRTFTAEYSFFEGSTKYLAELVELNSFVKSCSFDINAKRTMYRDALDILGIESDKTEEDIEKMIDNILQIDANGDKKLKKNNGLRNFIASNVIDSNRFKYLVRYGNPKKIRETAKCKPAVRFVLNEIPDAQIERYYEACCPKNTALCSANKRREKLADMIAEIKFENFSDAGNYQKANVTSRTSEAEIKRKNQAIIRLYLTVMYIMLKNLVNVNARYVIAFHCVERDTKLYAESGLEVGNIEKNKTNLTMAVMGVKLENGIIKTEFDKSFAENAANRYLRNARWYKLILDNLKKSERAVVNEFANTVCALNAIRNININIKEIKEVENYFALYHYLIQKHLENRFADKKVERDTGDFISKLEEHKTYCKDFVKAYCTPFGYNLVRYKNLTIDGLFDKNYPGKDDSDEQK

B1: target 1 U8C,G12U (mixed)
RNA 1: CACCCGUGCAAAAAUGCAGGGGUCUAAAACUGAGCGGAUAACCUCUCUAUGG
RNA 2: GGGAAUGGAUCCACAUCUACGAAUUCGUACCAUAGAGAGUUUACCCGCUCACCGAGAUCGGAAGAGCACACGU
B2: target 1 U3C,G5U (mixed)
RNA 1: CACCCGUGCAAAAAUGCAGGGGUCUAAAACUGAGCGGAUAACCUCUCUAUGG
RNA 2: GGGAAUGGAUCCACAUCUACGAAUUCGUACCAUAGAGAGGUUAUCCUCCCACCGAGAUCGGAAGAGCACACGU
B3: target 1 A9C,G12A (mixed)
RNA 1: CACCCGUGCAAAAAUGCAGGGGUCUAAAACUGAGCGGAUAACCUCUCUAUGG
RNA 2: GGGAAUGGAUCCACAUCUACGAAUUCGUACCAUAGAGAGAUUCUCCGCUCACCGAGAUCGGAAGAGCACACGU
B4: target 1 insA 3' of 21,insG 3' of 2 (mixed)
RNA 1: CACCCGUGCAAAAAUGCAGGGGUCUAAAACUGAGCGGAUAACCUCUCUAUGG
RNA 2: GGGAAUGGAUCCACAUCUACGAAUUCGUACCAAUAGAGAGGUUAUCCGCUCGACCGAGAUCGGAAGAGCACACGU
B5: target 1 complement block 5-13 (mixed)
RNA 1: CACCCGUGCAAAAAUGCAGGGGUCUAAAACUGAGCGGAUAACCUCUCUAUGG
RNA 2: GGGAAUGGAUCCACAUCUACGAAUUCGUACCAUAGAGACCAAUAGGCCUCACCGAGAUCGGAAGAGCACACGU
B6: target 1 insU 3' of 21,insC 3' of 20 (mixed)
RNA 1: CACCCGUGCAAAAAUGCAGGGGUCUAAAACUGAGCGGAUAACCUCUCUAUGG
RNA 2: GGGAAUGGAUCCACAUCUACGAAUUCGUACCUACUAGAGAGGUUAUCCGCUCACCGAGAUCGGAAGAGCACACGU
B7: target 1 A9U,G12U (mixed)
RNA 1: CACCCGUGCAAAAAUGCAGGGGUCUAAAACUGAGCGGAUAACCUCUCUAUGG
RNA 2: GGGAAUGGAUCCACAUCUACGAAUUCGUACCAUAGAGAGUUUUUCCGCUCACCGAGAUCGGAAGAGCACACGU
B8: target 1 insG 3' of 7,insG 3' of 7 (mixed)
RNA 1: CACCCGUGCAAAAAUGCAGGGGUCUAAAACUGAGCGGAUAACCUCUCUAUGG
RNA 2: GGGAAUGGAUCCACAUCUACGAAUUCGUACCAUAGAGAGGUUAUCGGCGCUCACCGAGAUCGGAAGAGCACACGU
B9: target 1 U11G,C21A (mixed)
RNA 1: CACCCGUGCAAAAAUGCAGGGGUCUAAAACUGAGCGGAUAACCUCUCUAUGG
RNA 2: GGGAAUGGAUCCACAUCUACGAAUUCGUACAAUAGAGAGGGUAUCCGCUCACCGAGAUCGGAAGAGCACACGU
B10: target 1 del9,del14 (mixed)
RNA 1: CACCCGUGCAAAAAUGCAGGGGUCUAAAACUGAGCGGAUAACCUCUCUAUGG
RNA 2: GGGAAUGGAUCCACAUCUACGAAUUCGUACCAUAGAGGGUUUCCGCUCACCGAGAUCGGAAGAGCACACGU
B11: target 1 insU 3' of 18,insC 3' of 8 (mixed)
RNA 1: CACCCGUGCAAAAAUGCAGGGGUCUAAAACUGAGCGGAUAACCUCUCUAUGG
RNA 2: GGGAAUGGAUCCACAUCUACGAAUUCGUACCAUAUGAGAGGUUAUCCCGCUCACCGAGAUCGGAAGAGCACACGU
B12: target 1 insU 3' of 7,insC 3' of 1 (mixed)
RNA 1: CACCCGUGCAAAAAUGCAGGGGUCUAAAACUGAGCGGAUAACCUCUCUAUGG
RNA 2: GGGAAUGGAUCCACAUCUACGAAUUCGUACCAUAGAGAGGUUAUCUCGCUCACCCGAGAUCGGAAGAGCACACGU
B13: target 1 insU 3' of 7,insG 3' of 4 (mixed)
RNA 1: CACCCGUGCAAAAAUGCAGGGGUCUAAAACUGAGCGGAUAACCUCUCUAUGG
RNA 2: GGGAAUGGAUCCACAUCUACGAAUUCGUACCAUAGAGAGGUUAUCUCGCGUCACCGAGAUCGGAAGAGCACACGU
B14: target 1 A20U,C21U (mixed)
RNA 1: CACCCGUGCAAAAAUGCAGGGGUCUAAAACUGAGCGGAUAACCUCUCUAUGG
RNA 2: GGGAAUGGAUCCACAUCUACGAAUUCGUACUUUAGAGAGGUUAUCCGCUCACCGAGAUCGGAAGAGCACACGU
B15: target 1 C4U,A9U (mixed)
RNA 1: CACCCGUGCAAAAAUGCAGGGGUCUAAAACUGAGCGGAUAACCUCUCUAUGG
RNA 2: GGGAAUGGAUCCACAUCUACGAAUUCGUACCAUAGAGAGGUUUUCCGUUCACCGAGAUCGGAAGAGCACACGU
B16: target 1 insG 3' of 10,insU 3' of 6 (mixed)
RNA 1: CACCCGUGCAAAAAUGCAGGGGUCUAAAACUGAGCGGAUAACCUCUCUAUGG
RNA 2: GGGAAUGGAUCCACAUCUACGAAUUCGUACCAUAGAGAGGUUGAUCCUGCUCACCGAGAUCGGAAGAGCACACGU
B17: target 1 insC 3' of 19,insG 3' of 8 (mixed)
RNA 1: CACCCGUGCAAAAAUGCAGGGGUCUAAAACUGAGCGGAUAACCUCUCUAUGG
RNA 2: GGGAAUGGAUCCACAUCUACGAAUUCGUACCAUCAGAGAGGUUAUGCCGCUCACCGAGAUCGGAAGAGCACACGU
B18: target 1 A1U,G15U (mixed)
RNA 1: CACCCGUGCAAAAAUGCAGGGGUCUAAAACUGAGCGGAUAACCUCUCUAUGG
RNA 2: GGGAAUGGAUCCACAUCUACGAAUUCGUACCAUAGAUAGGUUAUCCGCUCUCCGAGAUCGGAAGAGCACACGU
B19: target 1 del13,del17 (mixed)
RNA 1: CACCCGUGCAAAAAUGCAGGGGUCUAAAACUGAGCGGAUAACCUCUCUAUGG
RNA 2: GGGAAUGGAUCCACAUCUACGAAUUCGUACCAUAAGAGUUAUCCGCUCACCGAGAUCGGAAGAGCACACGU
B20: target 1 insG 3' of 19,insA 3' of 10 (mixed)
RNA 1: CACCCGUGCAAAAAUGCAGGGGUCUAAAACUGAGCGGAUAACCUCUCUAUGG
RNA 2: GGGAAUGGAUCCACAUCUACGAAUUCGUACCAUGAGAGAGGUUAAUCCGCUCACCGAGAUCGGAAGAGCACACGU
B21: target 1 insU 3' of 18,insG 3' of 14 (mixed)
RNA 1: CACCCGUGCAAAAAUGCAGGGGUCUAAAACUGAGCGGAUAACCUCUCUAUGG
RNA 2: GGGAAUGGAUCCACAUCUACGAAUUCGUACCAUAUGAGAGGGUUAUCCGCUCACCGAGAUCGGAAGAGCACACGU
B22: target 1 C7G,A20U (mixed)
RNA 1: CACCCGUGCAAAAAUGCAGGGGUCUAAAACUGAGCGGAUAACCUCUCUAUGG
RNA 2: GGGAAUGGAUCCACAUCUACGAAUUCGUACCUUAGAGAGGUUAUGCGCUCACCGAGAUCGGAAGAGCACACGU
B23: target 1 C7G,A14G (mixed)
RNA 1: CACCCGUGCAAAAAUGCAGGGGUCUAAAACUGAGCGGAUAACCUCUCUAUGG
RNA 2: GGGAAUGGAUCCACAUCUACGAAUUCGUACCAUAGAGGGGUUAUGCGCUCACCGAGAUCGGAAGAGCACACGU
B24: target 1 C7A,U11C (mixed)
RNA 1: CACCCGUGCAAAAAUGCAGGGGUCUAAAACUGAGCGGAUAACCUCUCUAUGG
RNA 2: GGGAAUGGAUCCACAUCUACGAAUUCGUACCAUAGAGAGGCUAUACGCUCACCGAGAUCGGAAGAGCACACGU
B25: target 1 U19A,A20U (mixed)
RNA 1: CACCCGUGCAAAAAUGCAGGGGUCUAAAACUGAGCGGAUAACCUCUCUAUGG
RNA 2: GGGAAUGGAUCCACAUCUACGAAUUCGUACCUAAGAGAGGUUAUCCGCUCACCGAGAUCGGAAGAGCACACGU
B26: target 1 insA 3' of 10,insG 3' of 2 (mixed)
RNA 1: CACCCGUGCAAAAAUGCAGGGGUCUAAAACUGAGCGGAUAACCUCUCUAUGG
RNA 2: GGGAAUGGAUCCACAUCUACGAAUUCGUACCAUAGAGAGGUUAAUCCGCUCGACCGAGAUCGGAAGAGCACACGU
B27: target 1 U11A,C21U (mixed)
RNA 1: CACCCGUGCAAAAAUGCAGGGGUCUAAAACUGAGCGGAUAACCUCUCUAUGG
RNA 2: GGGAAUGGAUCCACAUCUACGAAUUCGUACUAUAGAGAGGAUAUCCGCUCACCGAGAUCGGAAGAGCACACGU
B28: target 1 C7G,U10C (mixed)
RNA 1: CACCCGUGCAAAAAUGCAGGGGUCUAAAACUGAGCGGAUAACCUCUCUAUGG
RNA 2: GGGAAUGGAUCCACAUCUACGAAUUCGUACCAUAGAGAGGUCAUGCGCUCACCGAGAUCGGAAGAGCACACGU

These binders were tested against T1, EsCas13d, nuclease-dead (assay: crRNA (strand 1, pre-loaded); Mg2+; 40 mM Tris-HCl pH 7.5, 150 mM NaCl, 6 mM MgCl2, 1 mM DTT, 0.1% Tween-20, 0.2 mg/ml BSA; 25 C; 10 min per concentration, then washed). Details: tags: His6-TwinStrep-SUMO cleaved; N-terminal SNAP kept (SNAP-Surface 488); label: 3' end held by stalled T7 RNA polymerase.
B1 was tested, and the Kd was 10.7 ± 0.6 nM.
In the case of B2, the Kd is reported as 42 ± 9 nM.
For B3, the Kd was 16.6 ± 1.9 nM.
B4 gave a Kd of 16 ± 0.9 nM.
In the case of B5, the Kd is reported as ~80 nM.
Binder B6 has a Kd of 13.5 ± 1 nM.
In the case of B7, the Kd is reported as 10.9 ± 1.1 nM.
Binder B8 has a Kd of 9.8 ± 0.5 nM.
Work on B9 yielded a Kd of 64 ± 12 nM.
Binder B10 has a Kd of 28 ± 1.8 nM.
B11 was tested, and the Kd was 53 ± 4 nM.
B12 showed a Kd of 13.9 ± 0.6 nM.
In the case of B13, the Kd is reported as 7.41 ± 0.26 nM.
For B14, the Kd was 19.5 ± 1.2 nM.
Work on B15 yielded a Kd of 50 ± 16 nM.
In the case of B16, the Kd is reported as 36.8 ± 3.1 nM.
For B17, the Kd was 45 ± 7 nM.
Work on B18 yielded a Kd of 25.9 ± 3 nM.
For B19, the Kd was 55 ± 20 nM.
For B20, the Kd was 59 ± 5 nM.
Work on B21 yielded a Kd of 46 ± 3 nM.
Binder B22 has a Kd of 47 ± 6 nM.
B23 showed a Kd of 17.7 ± 1.2 nM.
Work on B24 yielded a Kd of 8.4 ± 0.4 nM.
B25 was tested, and the Kd was 47 ± 4 nM.
With B26 the Kd was 12.4 ± 0.7 nM.
Binder B27 has a Kd of 8.3 ± 0.5 nM.
B28 was tested, and the Kd was 24.6 ± 2.2 nM.
